Data taken from PMC11904967.

Target: pyruvate kinase PKM (PKM2), endogenous in PANC‐1 cells (human (endogenous in PANC-1)) (UniProt P14618)
Assay: western blotting of monomers and dimers; AsPC-1 and PANC-1 cells transduced with HACD2 WT, HACD2 MUT or vector, or with HACD2 knockdown; how dimers were kept on the gel is not told

Sequence of pyruvate kinase PKM (PKM2), endogenous in PANC‐1 cells, P14618 1-531 (natural protein; other documents disagree on this pair) (P14618 whole entry): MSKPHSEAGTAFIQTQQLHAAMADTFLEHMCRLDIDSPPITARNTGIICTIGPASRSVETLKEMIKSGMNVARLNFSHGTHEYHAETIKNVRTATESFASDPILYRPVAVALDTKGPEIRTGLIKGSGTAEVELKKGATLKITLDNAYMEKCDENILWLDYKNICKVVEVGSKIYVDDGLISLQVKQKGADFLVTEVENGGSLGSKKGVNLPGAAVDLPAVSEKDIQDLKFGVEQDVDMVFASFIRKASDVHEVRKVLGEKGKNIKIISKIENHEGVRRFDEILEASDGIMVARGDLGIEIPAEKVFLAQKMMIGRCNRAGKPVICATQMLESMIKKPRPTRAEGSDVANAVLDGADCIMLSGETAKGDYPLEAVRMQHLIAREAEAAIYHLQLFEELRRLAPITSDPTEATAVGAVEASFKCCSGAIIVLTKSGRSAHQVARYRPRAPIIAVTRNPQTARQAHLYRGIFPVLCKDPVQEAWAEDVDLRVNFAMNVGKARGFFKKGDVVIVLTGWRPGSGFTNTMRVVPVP

stoichiometry N: 2
Substance: pyruvate kinase PKM (PKM2), endogenous in PANC‐1 cells, P14618 1-531 (natural protein; other documents disagree on this pair)
